Experimental data reported in patent US20100323957A1, “NOVEL ASSAY FOR INHIBITORS OF EGFR” (THE REGENTS OF THE UNIVERSITY OF CALIFORNIA THE OFFICE OF …, priority 2007, published 2010).
Substitutions are numbered along the chain they refer to. Names may count otherwise.

B1: MIG6(segments 1-2): longer MIG6 peptide, residues 336-412, expressed as Trp DLE fusion; M346 mutated to leucine (protein)
peptide: KSLPSYLNGVLPPTQSFAPDPKYVSSKALQRQNSEGSASKVPCILPIIENGKKVSSTHYYLLPERPPYLDKYEKFFR
B2: MIG6(segments 1-2) Y358A: MIG6 residues 336-412 bearing a mutation within segment 1 (Y358A) (protein)
peptide: B1 peptide with Y23A
B3: MIG6(M346A): full-length MIG6 with M346A mutation in segment 1, co-expressed in cells (protein)
chain: MSIAGVAAQEIRVPLKTGFLHNGRAMGNMRKTYWSSRSEFKNNFLNIDPITMAYSLNSSAQERLIPLGHASKSAPMNGHCFAENGPSQKSSLPPLLIPPSENLGPHEEDQVVCGFKKLTVNGVCASTPPLTPIKNSPSLFPCAPLCERGSRPLPPLPISEALSLDDTDCEVEFLTSSDTDFLLEDSTLSDFKYDVPGRRSFRGCGQINYAYFDTPAVSAADLSYVSDQNGGVPDPNPPPPQTHRRLRRSHSGPAGSFNKPAIRISNCCIHRASPNSDEDKPEVPPRVPIPPRPVKPDYRRWSAEVTSSTYSDEDRPPKVPPREPLSPSNSRTPSPKSLPSYLNGVAPPTQSFAPDPKYVSSKALQRQNSEGSASKVPCILPIIENGKKVSSTHYYLLPERPPYLDKYEKFFREAEETNGGAQIQPLPADCGISSATEKPDSKTKMDLGGHVKRKHLSYVVSP
modifications: left off: small tags and cut ends
notes: full-length MIG6 with M346A mutation in segment 1, co-expressed in cells
B4: MIG6(F352A): full-length MIG6 with F352A mutation in segment 1, co-expressed in cells (protein)
chain: B3 chain with A346M, F352A
modifications: left off: small tags and cut ends
notes: full-length MIG6 with F352A mutation in segment 1, co-expressed in cells
B5: MIG6(Y358A): full-length MIG6 with Y358A mutation in segment 1, co-expressed in cells (protein)
chain: B3 chain with A346M, Y358A
modifications: left off: small tags and cut ends
notes: full-length MIG6 with Y358A mutation in segment 1, co-expressed in cells

Experiments:
[1] = target: T1, wild-type EGFR kinase domain in solution (Homo sapiens, UniProt P00533); assay: Kinase assay in solution, wild-type kinase domain (basal activity); type: biochemical; conditions: result in words
T1 construct: DNA encoding residues 672-998 of human EGFR was cloned into pFAST BAC HT; made in house; host or cells: Sf9 insect cells (baculovirus)
Procedure: (§1) Kinase assays were performed using methods known in the art and described herein. The substrate peptide was kept at 1 mM in all the experiments. The reported rates are the initial velocities normalized by the kinase concentrations. The wild-type kinase concentrations in the vesicle-based and solution-based assays were […] respectively.
(§2) A continuous enzyme-coupled kinase assay was performed to measure the kinase activity of the proteins as described in Barker et al., ((1995) Biochemistry, Vol. 34(54): 14843-51), with modifications, as described herein. The ATP concentration was kept to 0.5 mM.
(§3) The buffer used contained 10 mM MgCl2, 20 mM Tris, and pH 7.5. […] The substrate peptide was derived from the region spanning Y1173 in EGFR ([…]). All proteins used in this assay contained the N-terminal (His)6 tag unless otherwise noted.
The protein concentrations of the EGFR kinase domain used in the assay ranged from 3.5 to 14 μM. The total concentration of the DOGS-NTA-Ni in the bulk solution was kept to 12.5 μM in all assays with DOG-NTA-Ni-containing vesicles. For assays of the kinase domain attached to vesicles, the protein and vesicles were preincubated at 4° C. for ˜5 min.

[2] = target: T2, EGFR kinase domain L834R mutant (Homo sapiens, UniProt P00533, L858R); assay: Kinase assay in solution, L834R mutant kinase domain; type: biochemical; conditions: for IC50: L834R at 200 nM, MnCl2 10 mM, read-out: IC50 for inhibition of L834R mutant kinase domain
T2 construct: DNA encoding residues 672-998 of human EGFR was cloned into pFAST BAC HT; made in house; host or cells: Sf9 insect cells (baculovirus)
Procedure: To test the role of segment 2, we produced a longer peptide (residues 336-412, MIG6(segments 1-2)), and analyzed its effect on a variant of the EGFR kinase domain that contains a mutation (L834R) that renders it constitutively active in the absence of concentration on vesicles. MIG6(segments 1-2) inhibits this mutant kinase domain with an IC50 value of ˜200 nM (FIG. 25a). MIG6(segments 1-2) bearing a mutation within segment 1 (Y358A) inhibited L834R much less efficiently (IC50˜5 μM).
as §1, §2, §3

full-length EGFR = target: T3, full-length EGFR (Homo sapiens, UniProt P00533); assay: Cell-based assay of EGFR autophosphorylation, Cos-7 cells co-transfected with EGFR and MIG6; conditions: co-expression with EGFR, EGF 50 ng/ml, western blot
T3 construct: Cos-7 cells co-transfected with constructs containing full-length EGFR and MIG6; expressed in transfected cells; host or cells: Cos-7
Source text: The wild-type and mutant forms of the EGFR kinase domain were expressed and purified using methods known in the art and described in Zhang et al., (2006). The 60-residue MIG6 peptide was expressed in bacteria as a glutathione S-transferase (GST)-fusion protein, purified and treated with the TEV protease to remove the GST-moiety. The wild-type and Y358A mutant MIG6(segments 1-2) peptides were fused to a Trp DLE leader peptide and expressed as inclusion bodies and purified as described. All other MIG6 peptides were produced using solid phase synthesis. […] The binding affinities between the kinase domain and fluorescein-labeled MIG6 peptides were measured by monitoring the change of fluorescence anisotropy during the titration and fitting the data to a single-site binding model. Kinase assays in solution and on vesicle were performed using methods known in the art and described herein. Cell-based inhibition assays were performed using Cos-7 cells co-transfected with constructs containing full-length EGFR and MIG6.
For cell-based assays, Cos-7 cells were co-transfected using Fugene 6 (Roche) with the DNA encoding the N-terminal Flag-tagged EGFR in pcDNA3.1 constructs and the wild-type or mutants of the MIG6 genes with a C-terminal Myc tag (also in pcDNA3.1). Cells were cultured for 36 h after transfection and serum-starved for 12 h. Cells were treated with EGF (50 ng ml^−1) for ˜5 min at 37° C., lysed and subjected to western blot analyses. The levels of total EGFR, EGFR autophosphorylation and MIG6 were probed using the anti-EGFR antibody SC03 (Santa Cruz), anti-phosphotyrosine antibody 4G10 (Upstate) and an anti-Myc antibody (Cell Signalling), respectively.

Row | Molecule | inhibition of basal activity of wild-type kinase domain in solution [1] | IC50 [2] [µM] | inhibition of L834R mutant kinase domain ([2]; result in words) | EGF-induced autophosphorylation of EGFR (full-length EGFR)
1 | B1 | much less potent | ~0.2 | much more strongly | –
2 | B2 | does not show any inhibition | ~5 | – | –
3 | B3 | – | – | – | abolishes this effect
4 | B4 | – | – | – | abolishes this effect
5 | B5 | – | – | – | abolishes this effect
